Laboratory results from the DeepSol protein solubility set.

Assay: soluble on expression in E. coli; label from the status in PepcDB or PDB records

Soluble on expression in E. coli, not soluble:
LFEMGLQRYLESGLRNESENLLVALVRGPAGLQLDDHRLSGAYQRPLSGHYFRMDLPQGHWRSRSLWDFELPQPGVGLHANLELGKTVQSLLMLTSEYRKFGKQISITVAQDYTPVRASFR
LFPSFLKPLAAHALELALNRLLTLDPDTSQALRTLDGQCIALSLKTPAVELQIRVDGECLRVGPVDAAYEMDLKVHGTLAGFLGQLPWLEQVRRAGGAQTGRLRVAGDAELAQRLQQLARRFDPDWQQPFIVVFGELLGVQIAGVLRMTLRQLQRSAVDLAQSAAEFITEESSSVVPRAELEAFYEDVDVLRDDVERLATRLMKLCSEMAA
LGECLADLAVDALIDEAELSPKPALVDRRGNGAHADLHLGLMQASALSLWPCFKEMADAAQRHGRIDARLRGVLGQLGRDGEAAMLRTTEGVNTHRGAIWALGLLVAAAALEPRRTQAGEVAARAGRIALLDDPAAAIGDSHGERVRRRYGVGGAREEARLCFPRAVRHGLPQLWRSREGGAGEQNARLDALLAIMSVLDDTCVLHRAGRVGLAAMQDGARAVLAAGGSASLAGRRRLCELDRRLLALNASPGGAADLLAACLFLDRLPAVSGGWAGSL
LGIAGLRYTFTFAVATAPSELLNITWYSAVSAAFNGALKFSITPLLPLGPITDERVEVSITALTPLSGVRSTSTALTPVRLCSAFAILFTDTKAEKLEFFEDTTERVDGDAVIPHTVNSETAALPTPFS
LGQTAYQKDSLARLARRGDELGTLARDFNRMGERLQSLIGSQRQLLRDVSHELRSPLARLRIALALAERAEPEARAQMWPRLEQECDRLEALIGEILALARLDAEPGASQRIALLPLLQRLREDALLLAPEQDIRLEVAPDLSIDGWPDMFERAVDNLLRNAVRFNPVGQPLEVRASSAGDYLRLSVRDHGPGIAAELQEQLGEPFFRAPNQSSPGHGLGLAIARRAIERHGGHLRLGNHPDGGFIATLSLPLRRKAT
LHLELEEKLAGIAAWEPTAPRLLNPGVSSGKALVASGVAAAHAREVLEDLGLRDVIPLWQVVQPYPLHTAFVERLLADYDEILVLEETTGVMELQLADRHRVKGKRSGFVPEVGELSPELVERLVAAFAGIPAAPSVAPPTGGGRRPTLCPGCPHRASFHAIKRAAPKGIYPSDIGCYTLGLNLGGVDTVLCMGAAVSQAAGFYHAYKLSGQVPDIVATIGDSTFFHAGIPPLIDAVVQDARFVLVILDNATTAMTGNQPTPALGWGAGGVPTATVDMEGLVKACGV
LLERLPVPVLAVQHDGVVVYSNRAFERMLDYPPNEVGNHLIGDLMQTASPGPSAVAELRESAGKLVALTHRDGSTVRAFVSESVLERHDDPVTLVCFHDVT
LQMLTLEEWAAEKYRSNPPSVSTLRRYAKQNLFCPPAMKQGRLWRVREDAELVGELVTPVIKKNDSLLLQRILSNGSQTA
LQVYTSDNQLIAEYGGKLSVPVEYNQIPPTFIHAFLAAEDSSFFEHSGISFKGLGRALSETVTGSNVQTGGSTITMQVAKNYYLSPERTLKRKLTEIFLARKIEQNLTKQEILSLYVNKIFLGKNAYGIAAAAKIYYNKTLDQLSIAEMAMISGLPKAPSKYNPVVNP
LRRGHLKLQRDGQIIGHTPEEWEQIFREVWPEYEIEPNPLPGYAPFDIGMWLTVEAPAYAVWIDPEDGSEYWAG
LSLLLEVSGNPKAGNVDREHDFDDLKFEHFLASAAGAFPAFLEVAEKRIIGEGVLRAVKESMRWHRAENVHFGAFLLLVPLISSWDAGGMVDIAEAARNRLRRTDFRDSLSVLEAFRLSNARVVEAGELNLKDRKTEEEIAQKKINLYEWMKMAPEENLIARELVDGFKISIEGAKFLLSFGNSGKAVVELYYHLLSKFPDPLVIAKMGREYAEKITEWAEKARTEEERKELDEKLLKDGANPGTIADLTASSI
LTLKNPIMVVGLPGVGLVGKLVAEHLVDELAAERIMEVYSPHFPPQVLVNKDCTVRPVSNTIYLGKANETDVLFLVGDHQSTTAQGHYELCSLYLDIAEELKVPRIYTLGGYPTGKLTYEDTVLGVANSTELIEEIKQYGVEFRESEPSGGIVGASGLLVAFSGMRGIDAACLMGMTPGYLMDPKSAQSLLKVLCNIFGIEVNTDSLKKKAEEMENILEKLKEKEEQQNLPEVKPTEEDLRYIG
LTRFFGDFFLDIEVKLADVAMMYGLNLGYELQDKTLSNIVEEQLGSTPVLGDQFEWQGLQWVIADVVDHQVTKVGLRLPNEEEEGEEED
LVLEGGGMRGLYTAGVLDAFLEAGIKVDGVVSVSAGALFGVNYLSNQPKRALRYNKRFMGDRRYMSFWSWLTTGNFVNKEFSYYKVPMELDVFDQDAFAESGVPFYVVATDIKTGKPDYIKIDHVFEQMEALRASSALPLVSEIVEYKGKRYMDGGLADSLPI
LWVYPARKPRGKAIIMCPGGGFNQIASDHEGRDFAAWFNNQGITYAVLNYRMPHGDVEVIREDIREAIRLIRRQSAEWGIHQLGVMGASIGGYIAATAATLYTGTDRPDFQVLLYPVISMTDRLTHWPSRERMLGETISEGLKETLSLELHVTADTPPTFIVLAEDDQAVSPLNSIVYYTALLKHGVSAGLHIYPEGGHSFGFRDSFIYKELWTDELQKWL
LYIHGFASSGESHKAKALKAGLAPYEVMTPTLSYVPSLAFQTLRQLVDESLAQKEELTLIGASLGGYYATQLSWLYNLKAILINPAITPYETL
MAADVGQALAFLQQVKTTQGASIYEGLKAALAKVLEDRPVNAVEALETSVLSTPPAANLSVPLVPAASAAAAAAAVAKASLFGDPEPVLDPESGEPIDPDAPNEFECEDVEGDGDLLDGLGVGLGRQEMYAAMLAVKRLGEDAKRGVSTVRFFGKFFGTQADYYVFETTLQSNPDMPEAPEGTIPLEPYGEGVNAYIYFVSNTLGGPLQQLPYVTPEQIKASRLLRRYLTGRLDAPVSAFPAFPGNEANYLRALIARISAATVCCPRGFFTADDDSAELSANDEWVPLKGREMALPVNWSHRYAHLKGQGRTVTHKRDPPDEEEEPEKNFWTAEEMEAGPPPLATLDTDAPLPAATGDKVPPPAWSPVFASASVTTRNQVAGVRSNRWPGAVCACAGRHFTSMYVGWGIKAGGEWSPCPPPPPVPQWGAPAAGVEGGQQLLLECNDLPPKPAPPEEEDE

Soluble on expression in E. coli, soluble:
LGTLFFSLEYNFERKAFVVNIKEARGLPAMDEQSMTSDPYIKMTILPEKKHKVKTRVLRKTLDPAFDETFTFYGIPYTQIQELALHFTILSFDRFSRDDIIGEVLIPLSGIELSEGKMLMNREII
LLAKEKYNGTESDDKYDPVEIVKWKIDREDGRKTLNSYINVLVLGLDDDEKRSDVIALINYNPDENKMNILSIARDTRVKVNGKYMKINALIGKGGEKMVIDMVEDITGLPVDYYVTLNFKGFREIVDTLGGVEINVPFDMDYDDPYQNLHIHLKKGKQVLDGKKAEQFVRYRKGNHNGEGYEDGDLGRIKMQQLFMREFVNQKLKLKYLLKADEIFYTLKKNMRTNIEIGDIRYFIKDIKNIKTPEINGYTLPGYSRYIGGQWFYIYDKKKTKELIEQNFYYSN
LLLFFPLGLQQPLLLLLSPPFQHEIQRRKEEIKEEKKRKEMAKQERLEIASLSNQDHTSKKDPGGHRTAAILHGGSPDFVGNGKHRANSSGRSRRERQYSVCNSEDSPGSCEILYFNMGSPDQLMVHKGKCIGSDEQLGKLVYNALETATGGFVLLYEWVLQWQKKMGPFLTSQEKEKIDKCKKQIQGTETEFNSLVKLSHPNVVRYLAMNLKEQDDSIVVDILVEHISGVSLAAHLSHSGPIPVHQLRRYTAQLLSGLDYLHSNSVVHKVLSASNVLVDAEGTVKITDYSISKRLADICKEDVFEQTRVRFSDNALPYKTGKKGDVWRLGLLLLSLSQGQECGEYPVTIPSDLPADFQDFLKKCVCLDDKERWSPQQLLKHSFINPQPKMPLVEQSPEDSGGQDYVETVIPSNRLPSAAFFSETQRQFSRYFIEFEELQLLGKGAFGAVIKVQNKLDGCCYAVKRIPINPASRQFRRIKGEVTLLSRLHHENIVRYYNAWIERHERPAGPGTPPPDSGPLAKDDRAARGQPASDTDGLDSVEAAAPPPILSSSVEWSTSGERSASARFPATGPGSSDDEDDDEDEHGGVFSQSFLPASDSESDIIFDNEDENSKSQNQDEDCNEKNGCHESEPSVTTEAVHYLYIQMEYCEKSTLRDTIDQGLYRDTVRLWRLFREILDGLAYIHEKGMIHRDLKPVNIFLDSDDHVKIGDFGLATDHLAFSADSKQDDQTGDLIKSDPSGHLTGMVGTALYVSPEVQGSTKSAYNQKVDLFSLGIIFFEMSYHPMVTASERIFVLNQLRDPTSPKFPEDFDDGEHAKQKSVISWLLNHDPAKRPTATELLKSELLPPPQMEESELHEVLHHTLTNVDGKAYRTMMAQIFSQRISPAIDYTYDSDILKGNFSIRTAKMQQHVCETIIRIFKRHGAVQLCTPLLLPRNRQIYEHNEAALFMDHSGMLVMLPFDLRIPFARYVARNNILNLKRYCIERVFRPRKLDRFHPKELLECAFDIVTSTTNSFLPTAEIIYTIYEIIQEFPALQERNYSIYLNHTMLLKAILLHCGIPEDKLSQVYIILYDAVTEKLTRREVEAKFCNLSLSSNSLCRLYKFIEQKGDLQDLMPTINSLIKQKTGIAQLVKYGLKDLEEVVGLLKKLGIKLQVLINLGLVYKVQQHNGIIFQFVAFIKRRQRAVPEILAAGGRYDLLIPQFRGPQALGPVPTAIGVSIAIDKISAAVLNMEESVTISSCDLLVVSVGQMSMSRAINLTQKLWTAGITAEIMYDWSQSQEELQEYCRHHEITYVALVSDKEGSHVKVKSFEKERQTEKRVLETELVDHVLQKLRTKVTDERNGREASDNLAVQNLKGSFSNASGLFEIHGATVVPIVSVLAPEKLSASTRRRYETQVQTRLQTSLANLHQKSSEIEILAVDLPKETILQFLSLEWDADEQAFNTTVKQLLSRLPKQRYLKLVCDEIYNIKVEKKVSVLFLYSYRDDYYRILF
LPAMEIECRITGTLNGVEFELVGGGEGTPEQGRMTNKMKSTKGALTFSPYLLSHVMGYGFYHFGTYPSGYENPFLHAINNGGYTNTRIEKYEDGGVLHVSFSYRYEAGRVIGDFKVMGTGFPEDSVIFTDKIIRSNATVEHLHPMGDNDLDGSFTRTFSLRDGGYYSSVVDSHMHFKSAIHPSILQNGGPMFAFRRVEEDHSNTELGIVEYQHAFKTPD
LSDEDFRAVFGMTRSAFANLPLWRQQNLRRERGLF
LVPRGSAMGISNDSSRGANRTIVVTTILESPYVMYKKNHEQLEGNERYEGYCVDLAYEIAKHVRIKYKLSIVGDGKYGARDPETKIWNGMVGELVYGRADIAVAPLTITLVREEVIDFSKPFMSLGISIMIKKGTPIESAEDLAKQTEIAYGTLDSGSTKEFFRRSKIAVYEKMWSYMKSAEPSVFTKTTADGVARVRKSKGKFAFLLESTMNEYIEQRKPCDTMKVGGNLDSKGYGVATPKGSALGTPVNLAVLKLSEQGILDKLKNKWWYDKGECG
LVSSPSTLNPGTNVAKLAEQAPVHWVSVAQIENSLTGRPPMAVGFDIDDTVLFSSPGFWRGKKTYSPDSDDYLKNPAFWEKMNNGWDEFSIPKEAARQLIDMHVRRGDSIYFVTGRSQTKTETVSKTLADNFHIPAANMNPVIFAGDKPEQNTRVQWLQEKNMRIFYGDSDNDITAARDCGIRGIRILRAANSTYKPLPQAGAFGEEVIVNSEY
MAAAKIKKGDTVLVVRGKEKGKQGKVLKVYERVKRRDKQGNPVYVRHFVIVEGVRLIKKHVKPIEGVREGGIIETEGPIDISNVMLICPNCNKPTRVGFRIVEEGNVRRKYRYCKKCNENIDLVSEKVIKGG
